Laboratory results published in US9365620B2, “Methods for treating pain” (NoNO NC., priority 2008, dated 2016).

How the values were obtained:
[1] = biological target: N-type calcium channels (Mus musculus, UniProt O55017); assay type: cell-based, Swiss mice
[2] = biological target: T1, IL-8RB (Homo sapiens, UniProt P25025); test: Competitive binding assay, IL-8/IL-8RB; details: peptide at 10 μM
T1 sequence (P25025 1-360): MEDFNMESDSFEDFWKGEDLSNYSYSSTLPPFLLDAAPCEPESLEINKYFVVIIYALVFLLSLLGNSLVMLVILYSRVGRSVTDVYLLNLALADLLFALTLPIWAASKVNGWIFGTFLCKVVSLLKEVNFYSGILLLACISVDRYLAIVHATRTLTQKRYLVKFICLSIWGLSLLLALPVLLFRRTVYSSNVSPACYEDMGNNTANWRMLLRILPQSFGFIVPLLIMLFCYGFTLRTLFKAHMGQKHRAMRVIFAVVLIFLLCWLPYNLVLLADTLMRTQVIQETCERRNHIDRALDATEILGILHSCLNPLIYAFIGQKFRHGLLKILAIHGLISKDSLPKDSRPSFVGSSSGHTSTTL

| Sequence | Ca^2+ current shown as a percentage [1] | inhibition of N-type calcium channel activity [1] | frequency (use) dependence of block of Ca^2+ currents [1] | voltage dependence of inhibition of Ca^2+ current [1] | inhibition of IL-8/IL-8RB [2] [%] |
| --- | --- | --- | --- | --- | --- |
| FGRKKRRQRRRKLSSIESDV (synthetic 1993 peptide F-Tat-NR2B9c) [Peptide 1993, variant in which the Y residue at position 1 of Tat-NR2B9c was mutated to F] | 91+/−1.6% | no significant inhibition |  |  |  |
| YGRKKRRQRRRKLSSIESDV [Tat-NR2B9c] (Synthetic peptide Tat-NR2B9c) [chimeric peptide of a standard tat peptide and …] | 68+/−1.7% |  | not frequency dependent | voltage-independent manner | 80 |
